What all share (settings): both partners purified
Experiment [1] deals with T1, PHD of UHRF1 (residues 307–366) (human, UniProt Q96T88 307-366).
T1 construct: human UHRF1, PHD, residues 307–366; also called plant homeodomain; the isolated PHD
T1 sequence (looked up): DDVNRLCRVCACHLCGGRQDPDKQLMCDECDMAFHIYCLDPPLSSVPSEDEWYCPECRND
Put plainly: ITC; 0.05 mM protein in the cell, 0.5 mM protein or peptide in the syringe, iTC200, 18 °C, 10 mM HEPES pH 8.0, 100 mM NaCl. For orientation: ITC needs no label: the signal is the heat of the interaction.

The target of experiment [2] is T2, full-length UHRF1 (residues 1–793) (human, UniProt Q96T88 1-793).
T2 construct: human UHRF1, residues 1–793; monomer by gel filtration; also called wild-type UHRF1; ICBP90
T2 sequence (looked up): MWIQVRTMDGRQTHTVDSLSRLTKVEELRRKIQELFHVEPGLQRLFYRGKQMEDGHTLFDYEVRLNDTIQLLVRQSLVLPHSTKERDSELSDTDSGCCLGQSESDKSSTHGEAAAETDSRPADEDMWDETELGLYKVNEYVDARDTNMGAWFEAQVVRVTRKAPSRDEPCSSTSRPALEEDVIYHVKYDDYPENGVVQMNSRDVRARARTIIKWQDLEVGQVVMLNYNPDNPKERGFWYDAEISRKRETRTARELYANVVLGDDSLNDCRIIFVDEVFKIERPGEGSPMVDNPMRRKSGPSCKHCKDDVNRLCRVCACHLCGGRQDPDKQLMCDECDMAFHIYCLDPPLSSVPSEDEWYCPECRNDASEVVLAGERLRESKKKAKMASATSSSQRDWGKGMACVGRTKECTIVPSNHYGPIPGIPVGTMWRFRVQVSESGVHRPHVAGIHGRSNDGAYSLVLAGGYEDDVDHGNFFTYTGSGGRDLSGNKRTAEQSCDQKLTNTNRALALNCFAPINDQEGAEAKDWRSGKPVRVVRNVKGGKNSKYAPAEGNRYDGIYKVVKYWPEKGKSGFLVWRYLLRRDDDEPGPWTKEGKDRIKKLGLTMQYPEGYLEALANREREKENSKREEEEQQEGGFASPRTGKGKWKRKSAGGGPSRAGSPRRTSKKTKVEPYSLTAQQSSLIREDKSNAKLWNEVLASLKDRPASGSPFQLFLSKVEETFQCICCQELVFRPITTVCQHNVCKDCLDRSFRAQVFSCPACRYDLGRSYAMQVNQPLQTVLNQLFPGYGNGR
Described as above.

In a further experiment the target is T3, UHRF1^Δ627–674 (human, UniProt Q96T88 1-793, Δ627–674).
T3 construct: also called spacer deletion mutant
T3 sequence (looked up): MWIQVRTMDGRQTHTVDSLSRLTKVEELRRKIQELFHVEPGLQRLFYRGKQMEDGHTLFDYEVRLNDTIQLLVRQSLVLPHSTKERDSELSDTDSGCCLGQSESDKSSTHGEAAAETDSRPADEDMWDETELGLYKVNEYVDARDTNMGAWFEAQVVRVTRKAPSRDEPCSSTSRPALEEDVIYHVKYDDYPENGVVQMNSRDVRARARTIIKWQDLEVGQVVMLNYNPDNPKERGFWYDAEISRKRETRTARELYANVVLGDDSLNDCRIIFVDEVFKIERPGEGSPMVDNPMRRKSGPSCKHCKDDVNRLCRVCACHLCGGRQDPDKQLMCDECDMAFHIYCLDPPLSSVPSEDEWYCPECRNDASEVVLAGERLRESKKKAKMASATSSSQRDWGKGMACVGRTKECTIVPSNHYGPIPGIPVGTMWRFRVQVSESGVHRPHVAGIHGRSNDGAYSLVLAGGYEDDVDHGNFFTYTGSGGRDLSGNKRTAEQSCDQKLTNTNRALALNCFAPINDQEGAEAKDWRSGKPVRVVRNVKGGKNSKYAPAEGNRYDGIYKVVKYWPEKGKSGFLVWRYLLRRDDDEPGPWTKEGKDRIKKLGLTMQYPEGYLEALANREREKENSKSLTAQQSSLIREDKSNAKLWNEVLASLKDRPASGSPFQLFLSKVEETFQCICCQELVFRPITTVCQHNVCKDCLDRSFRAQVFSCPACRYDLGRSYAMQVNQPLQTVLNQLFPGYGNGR
Put plainly: pull-down; GST pull-down: 15 μg GST-tagged protein with 40 μg recombinant protein in 500 μl 20 mM HEPES-NaOH pH 8.0, 100 mM NaCl, 5% glycerol, 0.1% Triton X-100, 4 °C, glutathione resin, Coomassie staining; some panels with increasing hm-DNA.

B1: H3 peptide (1–17) (peptide, UniProt P68431 2-18, looked up)
peptide: ARTKQTARKSTGGKAPR
notes: histone H3, residues 1–17; also called H3K9me0; unmethylated histone H3
One may read the Kd as a measure of binding affinity in units of concentration. High values mean weaker binding, low ones tighter binding. Turning to B1, in experiment [1], the “fold higher binding affinity than with full-length UHRF1” value is ~34 fold. The Kd in experiment [2] is 26 µM.

B2: GST-tagged Spacer of UHRF1 (domain or fragment, human, UniProt Q96T88 587-674, looked up)
chain: PGPWTKEGKDRIKKLGLTMQYPEGYLEALANREREKENSKREEEEQQEGGFASPRTGKGKWKRKSAGGGPSRAGSPRRTSKKTKVEPY
notes: also called GST-Spacer
For the molecule B2, the binding result with UHRF1^Δ627–674 is “binds”.

Values taken from PMC4822050, “Hemi-methylated DNA opens a closed conformation of UHRF1 to facilitate its histone recognition” (Nature Communications, 2016).
